From the supplement of paper PMC9170038

System: MS2 coat protein
Assay: apparent KD of MS2 coat protein; designed switch direction (-1 OFF switch, 1 ON switch): -1; higher = weaker reporter binding
Summary of the method: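 On Illumina chips, designed RNA switches with common flanks were made by stalled E. coli RNA polymerase. Titrations with SNAP-549-labelled MS2 coat protein, doubling from 0.7 or 1.5 nM to 3 µM, were done with no input, with 200 uM small-molecule ligand, or with an oligonucleotide input. Apparent KD is the median per design over clusters, from curve fits of normalised cluster fluorescence.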

[1] = Eterna round: R95, input ligand: FMN 200 uM
[2] = Eterna round: R95, input ligand: microRNA oligo, concentration not stated
[3] = Eterna round: R95, input ligand: none

Row | Sequence | apparent KD of MS2 coat protein [1] [nM] | apparent KD of MS2 coat protein [2] [nM] | apparent KD of MS2 coat protein [3] [nM] | apparent KD of MS2 coat protein (input ligand: FMN 200 uM) [nM] | apparent KD of MS2 coat protein (input ligand: none) [nM]
1 | GAGAGAUAGAUAGAGGACGACAUGAGGAUCACCCAUGUGAGGGAAAUGUUAAGGAGAAAGCUUUUUGCUCGUCUUAA [JR_SV3TOV1_Sub034] (puzzle: Sensor v3, turn-off variant 1) | 123 | 57.7 | 152 | – | –
2 | GAGCAGGAAGGAUAUACAUGAGGAUCACCCAUGUACCAUCAAGGCUUUGAUUUUCACGGUAGAAGGUCCCAAUA [Sotece] (puzzle: Exclusion 3) | – | 34.8 | – | – | –
3 | GAGGAGCAAGGAUAUACGAGGAGAGGGAAGAGAGGAGAGAGACAUGAGGAUCACCCAUGUAGAAGGUGCAAGGG [JR_Exclu2_Sub093] (puzzle: Exclusion 2) | 116 | 131 | 180 | – | –
4 | GAGGUACAUGAGGAUCACCCAUGUGAGGAUAUAGGUAGAGAUUGAGAGAGGUGGAGGACUAGAAGGCACAGUGG [JR_Exclu1_Sub040] (puzzle: Exclusion 1) | 59.6 | 46 | 60.3 | – | –
5 | GAGGUGUUAGGAUAUCGGAGAUGGAGAAGAACGGGAUGAGCCGAGAAGGAACAUGAGGAUCACCCAUGUAGGUG [JR_Exclu4_Sub031] (puzzle: Exclusion 4) | 415 | 420 | 553 | – | –
6 | GAGUACUGAGGAUAUACAUGAGGAUCACCCAUGUGUUCCAACUAGGAAUCUAGAGUAUGUAGAAGGCAGUGCUG [salish99_ex3_r4_704] (Eterna round: R97, puzzle: Exclusion 3) | – | – | – | 145 | 130
7 | GAGUGACAUGAGGAUCACCCAUGUAAGGAUAUACGGUUGGUAGAGAGAGGGCGAAAGGGUAGAAGGUACGAAGG [JR_Exclu1_Sub054] (puzzle: Exclusion 1) | 64.6 | 76 | 95.2 | – | –
8 | GAUAAGGGAGGAUAUACGGAACGGUUUAUGCUCAGUGAGGCACAUGAGGAUCACCCAUGUAGAAGGCCCGACAG [Gezaerti] (puzzle: Exclusion 2) | – | 25.6 | – | – | –
9 | GAUAAGGUAGGAUAUACGAAUAAAGAGGGUAGUAAUAAUACACAUGAGGAUCACCCAUGUAGAAGGACCAAUAG [Mat - Exclusion 2 - Mod of my Tesla design - D42] (puzzle: Exclusion 2) | 41.2 | 19.3 | 17.9 | – | –
10 | GAUCAACAUGAGGAUCACCCAUGUGAGGAUAUGAUACUAUGUACUUCGGUACAUAGUAUCAGAAGGCAUUAGGA [Ex1-3: 39] (puzzle: Exclusion 1) | – | 52.3 | – | – | –
11 | GAUCACUGAGGAUAUACACAGAUACAAAGUAUCUGAUGGUGACAUGAGGAUCACCCAUGUAGAAGGCAGAGGUC [Omei Ex2 B7] (Eterna round: R97, puzzle: Exclusion 2) | – | – | – | 290 | 495
12 | GAUCAUGCAGGAUAUACAGUAACCAUGAAAACAUGGAUCAAACAUGAGGAUCACCCAUGUAGAAGGGCAUGAUC [Omei Ex2 A22] (Eterna round: R97, puzzle: Exclusion 2) | – | – | – | 38.8 | 18.2
13 | GAUCGACAUGAGGAUCACCCAUGUCAGGAUAUCGUCACUGGAGCCUCGGCUCCAGUGACGAGAAGGGAUAUAAU [E1/16-A2] (Eterna round: R97, puzzle: Exclusion 1) | – | – | – | 31.6 | 32
14 | GAUGAGGUAGGAUAUACGAGAAGAUAGGGUAGAUAGAUAACACAUGAGGAUCACCCAUGUAGAAGGACCAGUAG [Mat - Exclusion 2 - Mod of my Tesla design - D72] (puzzle: Exclusion 2) | – | 32.5 | – | – | –
15 | GAUGCUUCGGCAUCUACAAGCUUUUUGCUCGUCUUAUUAACAUGAGGAUCACCCAUGUCAAAGAGACCUCAUGUAUU [Sensor v3 - turn-off variant 2 - 4] (puzzle: Sensor v3, turn-off variant 2) | 314 | 18.9 | 381 | – | –
